Consider 39 variants from the RNAGym collection of RNA variant scans (doi:10.7554/elife.80360).

B1: CPEB3 Ribozyme (parent)
chain: GGGGGCCACAGCAGAAGCGUUCACGUCGCGGCCCCUGUCAGAUUCUGGUGAAUCUGCGAAUUCUGCUGU

Variants of B1 are the subject of this series. Description: self-cleavage, relative activity (ratio to wild type); higher = more cleavage; co-transcriptional.
As to GGGGGCCACAGCAGAAGGGGUCACGUCGCGGCCCCUGUCAGAUUCUGGUGAAUCUGCGAAUUCUGCUGU [C18G U20G], the self-cleavage was found to be 0.218.
For GGGGGCCACAGCAGAAGGGUUCACGUCGCGGCCCCUGUCAGAUUCUGGUGAAUCUGCGAAUUCUGCCGU [C18G U67C] the value was 0.186.
Regarding GGGGGCCACAGCAGAAGGGUUCACGUCGCGGCCCCUGUCAGAUUCUGGUGAAUCUGCGAAUUCUGCAGU [C18G U67A], the self-cleavage is 0.205.
For GGGGGCCACAGCAGAAGGGUUCACGUCGCGGCCCCUGUCAGAUUCUGGUGAAUCUGCGAAUUCUGCUAU [C18G G68A] the value was 0.403; for GGGGGCCACAGCAGAAGGGUUCACGUCGCGGCCCCUGUCAGAUUCUGGUGAAUCUGCGAAUUCUGCUCU [C18G G68C], 0.21.
GGGGGCCACAGCAGAAGUGUUCGCGUCGCGGCCCCUGUCAGAUUCUGGUGAAUCUGCGAAUUCUGCUGU [C18U A23G]: the self-cleavage worked out at 0.715.
For GGGGGCCACAGCAGAAGUGUUCUCGUCGCGGCCCCUGUCAGAUUCUGGUGAAUCUGCGAAUUCUGCUGU [C18U A23U] the value was 0.877; for GGGGGCCACAGCAGAAGUGUUCCCGUCGCGGCCCCUGUCAGAUUCUGGUGAAUCUGCGAAUUCUGCUGU [C18U A23C], 0.746.
For the variant GGGGGCCACAGCAGAAGGUUUCACGUCGCGGCCCCUGUCAGAUUCUGGUGAAUCUGCGAAUUCUGCUGU [C18G G19U], the self-cleavage came to 0.153.
For GGGGGCCACAGCAGAAGGAUUCACGUCGCGGCCCCUGUCAGAUUCUGGUGAAUCUGCGAAUUCUGCUGU [C18G G19A] the value was 0.114; for GGGGGCCACAGCAGAAGGGUUCACGUCGCGGCCCCUGUCAGAUUCUGGUGAAUCUGCGAAUUCUCCUGU [C18G G65C], 0.141.
For GGGGGCCACAGCAGAAGGGUUCACGUCGCGGCCCCUGUCAGAUUCUGGUGAAUCUGCGAAUUCUACUGU [C18G G65A] the value was 0.131.
As for GGGGGCCACAGCAGAAGGGUUCACGUCGCGGCCCCUGUCAGAUUCUGGUGAAUCUGCGAACUCUGCUGU [C18G U61C], the self-cleavage was found to be 0.209.
For GGGGGCCACAGCAGAAGGGUUCACGUCGCGGCCCCUGUCAGAUUCUGGUGAAUCUGCGAAGUCUGCUGU [C18G U61G] the value was 0.144; for GGGGGCCACAGCAGAAGGGUUCACGUCGCGGCCCCUGUCAGAUUCUGGUGAAUCUGCGAAUACUGCUGU [C18G U62A], 0.142.
Turning to GGGGGCCACAGCAGAAGGGUUCACGUCGCGGCCCCUGUCAGAUUCUGGUGAAUCUGCGAAUCCUGCUGU [C18G U62C], the self-cleavage turned out to be 0.122.
For GGGGGCCACAGCAGAAGGGUUCACGUCGCGGCCCCUGUCAGAUUCUGCUGAAUCUGCGAAUUCUGCUGU [C18G G48C] the value was 0.17; for GGGGGCCACAGCAGAAGGGUUCACGUCGCGGCCCCUGUCAGAUUCUGAUGAAUCUGCGAAUUCUGCUGU [C18G G48A], 0.145.
For GGGGGCCACAGCAGAAGGGUUCACGUCGCGGCCCCUGUCAGAUUCUGUUGAAUCUGCGAAUUCUGCUGU [C18G G48U] the value was 0.208.
For GGGGGCCACAGCAGAAGUGUUCACGUCGCGGCCCCUGUCAGAUUCUGGUGUAUCUGCGAAUUCUGCUGU [C18U A51U] the value was 0.851; for GGGGGCCACAGCAGAAGUGUUCACGUCGCGGCCCCUGUCAGAUUCUGGUGGAUCUGCGAAUUCUGCUGU [C18U A51G], 0.853; for GGGGGCCACAGCAGAAGGGUUCACGUCCCGGCCCCUGUCAGAUUCUGGUGAAUCUGCGAAUUCUGCUGU [C18G G28C], 0.911.
As for GGGGGCCACAGCAGAAGGGUUCACGUCUCGGCCCCUGUCAGAUUCUGGUGAAUCUGCGAAUUCUGCUGU [C18G G28U], the self-cleavage was found to be 0.129.
For GGGGGCCACAGCAGAAGGGUUCACGUCGCGGCCCCUGUCAGAUUCUGGUAAAUCUGCGAAUUCUGCUGU [C18G G50A] the value was 0.266; for GGGGGCCACAGCAGAAGGGUUCACGUCGCGGCCCCUGUCAGAUUCUGGUUAAUCUGCGAAUUCUGCUGU [C18G G50U], 0.143.
For GGGGGCCACAGCAGAAGUGUUCACGUCGCGGCCCCUGUCAGCUUCUGGUGAAUCUGCGAAUUCUGCUGU [C18U A42C] the value was 0.556; for GGGGGCCACAGCAGAAGUGUUCACGUCGCGGCCCCUGUCAGGUUCUGGUGAAUCUGCGAAUUCUGCUGU [C18U A42G], 0.579.
For GGGGGCCACAGCAGAAGGGUUCACGUCGCGGCCCCUGUCAGAUUCUAGUGAAUCUGCGAAUUCUGCUGU [C18G G47A] the value was 0.21; for GGGGGCCACAGCAGAAGGGUUCACGUCGCGGCCCCUGUCAGAUUCCGGUGAAUCUGCGAAUUCUGCUGU [C18G U46C], 0.15; for GGGGGCCACAGCAGAAGGGUUCACGUCGCGGCCCCUGUCAGAUUCAGGUGAAUCUGCGAAUUCUGCUGU [C18G U46A], 0.227.
In the case of GGGGGCCACAGCAGAAGGGUUCACGUCGCGGCCCCUGUCAGAAUCUGGUGAAUCUGCGAAUUCUGCUGU [C18G U43A], the self-cleavage is 0.114.
For GGGGGCCACAGCAGAAGGGUUCACGUCGCGGCCCCUGUCAGAGUCUGGUGAAUCUGCGAAUUCUGCUGU [C18G U43G] the value was 0.0435; for GGGGGCCACAGCAGAAGGGUUCACGUCGCGGCCCCUGUCAGACUCUGGUGAAUCUGCGAAUUCUGCUGU [C18G U43C], 0.188.
For GGGGGCCACAGCAGAAGGGUUCACGUCGCGGCCCCUGUCAGAUUCUGGUGAAUCUUCGAAUUCUGCUGU [C18G G56U] the value was 0.128.
For GGGGGCCACAGCAGAAGGGUUCACGUCGCGGCCCCUCUCAGAUUCUGGUGAAUCUGCGAAUUCUGCUGU [C18G G37C] the value was 0.111; for GGGGGCCACAGCAGAAGGGUUCACGUCGCGGCCCCUUUCAGAUUCUGGUGAAUCUGCGAAUUCUGCUGU [C18G G37U], 0.0757.
GGGGGCCACAGCAGAAGUGUUCACGUCGCGGCCCCUGUCCGAUUCUGGUGAAUCUGCGAAUUCUGCUGU [C18U A40C]: the self-cleavage is 0.197.
For GGGGGCCACAGCAGAAGGGUUCACGUCGCGGCCCCUGUCAGAUUCUGGUGAAUCCGCGAAUUCUGCUGU [C18G U55C] the value was 0.198.
For GGGGGCCACAGCAGAAGGGUUCACGUCGCGGCCCCUGUCAGAUUCUGGUGAAUCAGCGAAUUCUGCUGU [C18G U55A] the value was 0.126.
